According to patent US20250243286A1 (SIXPEAKS BIO, published 2025):
Like-named read-outs stand apart in the source and are kept apart here.

T1: human ActRIIB (human, UniProt Q13705 19-137, limits assumed)
T1 construct: antigen in MSD-SET; also called ACVR2B; ActR2B
T1 sequence: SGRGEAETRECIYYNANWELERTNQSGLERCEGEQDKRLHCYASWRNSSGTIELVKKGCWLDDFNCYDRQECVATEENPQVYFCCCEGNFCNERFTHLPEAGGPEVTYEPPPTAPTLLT


How the values were obtained:
[1] = biological target: T2, ActRIIA and ActRIIB (on TGFB/SMAD SBE Reporter HEK293 cells) (human)
[2] = biological target: T2, ActRIIA and ActRIIB (on TGFB/SMAD SBE …); assay: cell-based or functional assay
[3] = biological target: T2, ActRIIA and ActRIIB (on TGFB/SMAD SBE …); assay: cell-based or functional assay; remark: listed apart in the source
[4] = biological target: T2, ActRIIA and ActRIIB (on TGFB/SMAD SBE …); assay: cell-based or functional assay; remark: listed apart in the source
[5] = biological target: T2, ActRIIA and ActRIIB (on TGFB/SMAD SBE …); remark: listed apart in the source
[6] = biological target: T2, ActRIIA and ActRIIB (on TGFB/SMAD SBE …); assay: cell-based or functional assay; remark: listed apart in the source
[7] = biological target: T2, ActRIIA and ActRIIB (on TGFB/SMAD SBE …); assay: cell-based or functional assay; remark: listed apart in the source
[8] = biological target: T1, human ActRIIB; assay: MSD-SET
[9] = biological target: T3, human ActRIIA (human, UniProt P27037 20-135, limits assumed); assay: MSD-SET
T3 construct: antigen in MSD-SET; also called ACVR2A; ActR2A
T3 sequence (P27037 20-135 limits assumed): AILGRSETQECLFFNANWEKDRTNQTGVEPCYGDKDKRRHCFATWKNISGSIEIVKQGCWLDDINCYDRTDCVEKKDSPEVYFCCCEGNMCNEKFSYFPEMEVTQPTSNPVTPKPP

[10] = biological target: T3, human ActRIIA; assay: MSD-SET; remark: listed apart in the source
[11] = biological target: T1, human ActRIIB; assay: MSD-SET; remark: listed apart in the source
[12] = biological target: T3, human ActRIIA; assay: MSD-SET; remark: listed apart in the source
[13] = biological target: T1, human ActRIIB; assay: MSD-SET; remark: listed apart in the source
[14] = biological target: Pig ActRIIA (pig, UniProt F1S0H6 20-135); assay: MSD-SET
[15] = biological target: T1, human ActRIIB; assay: MSD-SET; remark: listed apart in the source
[16] = biological target: mouse ActRIIA (mouse, UniProt P27038 20-135, limits assumed); assay: MSD-SET
Sequence of mouse ActRIIA (P27038 20-135 limits assumed): as the sequence (P27037 20-135 limits assumed) above, with K20R, V73I counted along it

[17] = biological target: T1, human ActRIIB; assay: MSD-SET, preliminary
[18] = biological target: T3, human ActRIIA; assay: MSD-SET; remark: listed apart in the source
[19] = biological target: T3, human ActRIIA; assay: MSD-SET, preliminary
[20] = biological target: T3, human ActRIIA; assay: MSD-SET; remark: listed apart in the source

| Binder | IC50 (read off the curve); Activin-stimulated SMAD reporter gene assay [1] [nM] | IC50, Myostatin SMAD RGA [2] [nM] | IC50 [nM] (assay not given) [2] | IC90, Activin SMAD RGA [2] [nM] | IC90, Myostatin SMAD RGA [2] [nM] | IC90 [nM] (assay not given) [2] | IC50 (read off the curve); Myostatin-stimulated SMAD reporter gene assay [5] [nM] | IC50, Activin SMAD RGA [6] [nM] | IC50, Activin SMAD RGA [2] [nM] | Kd [8] [nM] | Kd [9] [nM] | IC50, Myostatin SMAD RGA [6] [nM] | Kd [11] [nM] | Kd [12] [nM] | Kd [13] [nM] | Kd [17] [nM] | Kd [18] [nM] | Kd [19] [nM] | also measured |
| --- | --- | --- | --- | --- | --- | --- | --- | --- | --- | --- | --- | --- | --- | --- | --- | --- | --- | --- | --- |
| Bimagrumab (antibody, V domains shown) VH: QVQLVQSGAEVKKPGASVKVSCKASGYTFTSSYINWVRQAPGQGLEWMGTINPVSGSTSYAQKFQGRVTMTRDTSISTAYMELSRLRSDDTAVYYCARGGWFDYWGQGTLVTVSS VL: QSALTQPASVSGSPGQSITISCTGTSSDVGSYNYVNWYQQHPGKAPKLMIYGVSKRPSGVSNRFSGSKSGNTASLTISGLQAEDEADYYCGTFAGGSYYGVFGGGTKLTVL | 0.3 | 0.56 | 0.517 | 9.38 | 13.5 | 8.07 | 0.4 | 0.5 | – | – | – | – | – | – | – | – | – | – | IC50, myostatin inhibition (SMAD RGA) [2]: 0.292 nM; IC95, Activin SMAD RGA [2]: 37.9 nM; IC95, Myostatin SMAD RGA [2]: 55.2 nM; IC99, Activin SMAD RGA [2]: 829 nM; IC99, Myostatin SMAD RGA [2]: 2680 nM; IC50, Activin SMAD RGA [3]: 0.32 nM; IC95, Activin SMAD RGA [3]: 19.6 nM; IC99, Activin SMAD RGA [3]: 206 nM; IC50, Myostatin SMAD RGA [4]: 0.292 nM; IC50 [nM] (assay not given) [7]: 0.294 nM; IC90 [nM] (assay not given) [7]: 6.57 nM |
| Antibody Biiramooscht (antibody, V domains shown, full-length IgG) VH: QVQLVQSGAEVKKPGASVKVSCKASGYTFTSSYINWVRQAPGQGLEWMGTINPVSGSTSYAQKFQGRVTMTRDTSISTAYMELSRLRSDDTAVYYCARGGWFDYWGQGTLVTVSS VL: QSALTQPASVSGSPGQSITISCTGTSSDVGSYNYVNWYQQHPGKAPKLMIYGVSKRESGVSNRFSGSKSGNTASLTISGLQAEDEADYYCGTFAGGAYYGVFGGGTKLTVL | – | 0.222 | 0.086 | 1.58 | 2.78 | 1.16 | – | 0.21 | 0.161 | 0.005 | 0.028 | 0.27 | 0.005 | 0.028 | – | – | – | – | IC50 fold difference to bimagrumab (assay not given) [2]: 6.02 fold; IC90 fold difference to bimagrumab (assay not given) [2]: 6.98 fold; Fold Difference to bimagrumab [10]: 6.4 fold; Kd [10]: 0.028 nM |
| Ofaschlupfer Fab (Fab, V domains shown, Fab) VH: QVQLVQSGAEVKKPGSSVKVSCKASGYTFTSSYINWVRQAPGQGLEWMGTINAVSGSTSYAQKFQGRVTITADTSTSTAYMELSSLRSEDTAVYYCARGGWFDYWGQGTLVTVSS VL: QSALTQPRSVSGSPGQSVTISCTGTSSDVGSKNYVNWYQQHPGKAPKLMIYGVSKRESGVPDRFSGSKSGNTASLTISGLQAEDEADYYCGTFAGGKYYGVFGGGTKLTVL | – | – | – | – | – | – | – | – | – | – | – | – | – | – | 0.0033 | 0.0253 | – | – | Kd [14]: 0.01 nM; Kd [15]: 0.002 nM; Kd [16]: 0.018 nM |
| Antibody Bäradreck (antibody, V domains shown, full-length IgG) VH: QVQLVQSGAEVKKPGSSVKVSCKASGYTFTSSYINWVRQAPGQGLEWMGTINPVSGSTSYAQKFQGRVTITADTSTSTAYMELSSLRSEDTAVYYCARGGWFDYWGQGTLVTVSS VL: QSALTQPRSVSGSPGQSVTISCTGTSSDVGSYNYVNWYQQHPGKAPKLMIYGVSKRPSGVPDRFSGSKSGNTASLTISGLQAEDEADYYCGTFAGGSYYGVFGGGTKLTVL | – | 0.255 | – | 4.99 | 4.05 | – | – | – | 0.257 | – | – | – | – | – | 0.0638 | 0.0638 | 0.112 | 0.112 | IC50, myostatin inhibition (SMAD RGA) [2]: 0.255 nM |
| Bebballesgmias Fab (Fab, V domains shown, Fab) VH: QVQLVQSGAEVKKPGSSVKVSCKASGYKFTSSYINWVRQAPGQGLEWMGTINPVSGSTSYAQKFQGRVTITADTSTSTAYMELSSLRSEDTAVYYCARGGWFDYWGQGTLVTVSS VL: QSALTQPRSVSGSPGQSVTISCTGTSSDVGSYNYVNWYQQHPGKAPKLMIYGVSKRPRGVPDRFSGSKSGNTASLTISGLQAEDEADYYCGTFAGGSYYGVFGGGTKLTVL | – | – | – | – | – | – | – | – | – | – | – | – | – | – | – | 0.0251 | 0.285 | 0.285 | – |
| Bäradreck Fab (Fab, V domains shown, Fab) VH: QVQLVQSGAEVKKPGSSVKVSCKASGYTFTSSYINWVRQAPGQGLEWMGTINPVSGSTSYAQKFQGRVTITADTSTSTAYMELSSLRSEDTAVYYCARGGWFDYWGQGTLVTVSS VL: QSALTQPRSVSGSPGQSVTISCTGTSSDVGSYNYVNWYQQHPGKAPKLMIYGVSKRPSGVPDRFSGSKSGNTASLTISGLQAEDEADYYCGTFAGGSYYGVFGGGTKLTVL | – | – | – | – | – | – | – | – | – | – | – | – | – | – | 0.0014 | 0.0563 | 0.655 | 0.655 | – |
| Antibody Rippla (antibody, V domains shown, full-length IgG; also called Ripp1a) VH: QVQLVQSGAEVRKPGASVKVSCKASGYTFTSSYINWVRQAPGQGLEWMGTINPVSGSTSYAQKFQGRVTMTRDTSISTAYMELSRLRSDDTAVYYCARGGWFDYWGQGTLVTVSS VL: QSALTQPASVSGSPGQSITISCTGTSSDVGSYNRVNWYQQHPGKAPKLMIYGVSKRESGVSNRFSGSKSGNTASLTISGLQAEDEADYYCGTFAGGRYYGVFGGGTKLTVL | 0.2 | 0.213 | 0.0209 | 1.58 | 9.65 | 1.27 | 0.2 | 0.09 | 0.0582 | 0.005 | 0.042 | 0.15 | 0.005 | 0.041 | – | – | – | – | IC50 fold difference to bimagrumab (assay not given) [2]: 25.6 fold; IC90 fold difference to bimagrumab (assay not given) [2]: 6.33 fold; Fold Difference to bimagrumab [10]: 4 fold; Kd [10]: 0.041 nM |
| Antibody Bäratatza (antibody, V domains shown, full-length IgG) VH: QVQLVQSGAEVKKPGASVKVSCKASGYTFTSSYINWVRQAPGQGLEWMGTINAVSGSTSYAQKFQGRVTMTRDTSISTAYMELSRLRSDDTAVYYCARSGWFDYWGQGTLVTVSS VL: QSALTQPASVSGSPGQSITISCTGTSSDVGSYNYVNWYQQHPGKAPKLMIYGVSKQQSGVSNRFSGSKSGNTASLTISGLQAEDEADYYCGTFAGGSYYGVFGGGTKLTVL | – | 0.0537 | – | 2.14 | 0.491 | – | – | – | 0.138 | – | – | – | 0.005 | 0.023 | – | – | – | – | Fold Difference to bimagrumab [20]: 49.5 fold; Kd [20]: 0.023 nM; IC50 [nM] (assay not given) [7]: 0.105 nM; IC50 fold difference to bimagrumab (assay not given) [7]: 2.8 fold; IC90 [nM] (assay not given) [7]: 2.77 nM; IC90 fold difference to bimagrumab (assay not given) [7]: 2.4 fold |
| Antibody Fasnetsküchla (antibody, V domains shown, full-length IgG) VH: QVQLVQSGAEVKKPGASVKVSCKASGYTFTSSYINWVRQAPGQGLEWMGTINAVSGSTSYAQKFQGRVTMTRDTSISTAYMELSRLRSDDTAVYYCARGGWFDYWGQGTLVTVSS VL: QSALTQPASVSGSPGQSITISCTGTSSDVGSANYVNWYQQHPGKAPKPMIYGVSRRPSGVSNRFSGSKSGNTASLTISGLQAEDEADYYCGTFAGGKYYGVFGGGTKLTVL | 0.3 | 0.513 | – | 3.82 | 4.63 | – | 0.7 | 0.43 | 0.347 | 0.008 | 0.029 | 0.48 | 0.008 | 0.029 | – | – | – | – | – |
